# Tested on: MDA-MB-231 cells
# Assay: MDA-MB-231 cell migration (matrixgel / transwell)
# Type: cell-based
# Conditions: 10 nM E2 or 10 ng/ml EGF alone, 20 hours
# Protocol: As anordrin has been reported as an anti-angiogenic agent resulting in inhibition of cell migration and invasion (16), we studied its ability to modulate MDA-MB-231 cell migration using matrixgel. […] After 20 hours migrated cells were stained and quantified using a plate reader at 560 nm.
# Transwell and flow cytometry assay: Cells were starved for 48 hours in phenol red free medium containing 5% charcoal-stripped FBS, and then changed into phenol red free medium for an additional 24 hours. Transwell was performed following the Chemicon kit instructions (CAT #ECM551). Briefly, cells were trypsinized, washed using 1×DPBS containing Ca2+ and Mg2+ (Sigma) and resuspensed in serum and phenol red free medium at a cell density of 0.5×10^6 cells/ml.
molecule,measurement,value
"EGF: EGF, binds to Her1; used at 10 ng/ml as stimulus (protein, UniProt P01133 23-1207, looked up, Pro-epidermal growth factor, used at 10 ng/ml as stimulus) Pro-epidermal growth factor: PQHWSCPEGTLAGNGNSTCVGPAPFLIFSHGNSIFRIDTEGTNYEQLVVDAGVSVIMDFHYNEKRIYWVDLERQLLQRVFLNGSRQERVCNIEKNVSGMAINWINEEVIWSNQQEGIITVTDMKGNNSHILLSALKYPANVAVDPVERFIFWSSEVAGSLYRADLDGVGVKALLETSEKITAVSLDVLDKRLFWIQYNREGSNSLICSCDYDGGSVHISKHPTQHNLFAMSLFGDRIFYSTWKMKTIWIANKHTGKDMVRINLHSSFVPLGELKVVHPLAQPKAEDDTWEPEQKLCKLRKGNCSSTVCGQDLQSHLCMCAEGYALSRDRKYCEDVNECAFWNHGCTLGCKNTPGSYYCTCPVGFVLLPDGKRCHQLVSCPRNVSECSHDCVLTSEGPLCFCPEGSVLERDGKTCSGCSSPDNGGCSQLCVPLSPVSWECDCFPGYDLQLDEKSCAASGPQPFLLFANSQDIRHMHFDGTDYGTLLSQQMGMVYALDHDPVENKIYFAHTALKWIERANMDGSQRERLIEEGVDVPEGLAVDWIGRRFYWTDRGKSLIGRSDLNGKRSKIITKENISQPRGIAVHPMAKRLFWTDTGINPRIESSSLQGLGRLVIASSDLIWPSGITIDFLTDKLYWCDAKQSVIEMANLDGSKRRRLTQNDVGHPFAVAVFEDYVWFSDWAMPSVMRVNKRTGKDRVRLQGSMLKPSSLVVVHPLAKPGADPCLYQNGGCEHICKKRLGTAWCSCREGFMKASDGKTCLALDGHQLLAGGEVDLKNQVTPLDILSKTRVSEDNITESQHMLVAEIMVSDQDDCAPVGCSMYARCISEGEDATCQCLKGFAGDGKLCSDIDECEMGVPVCPPASSKCINTEGGYVCRCSEGYQGDGIHCLDIDECQLGEHSCGENASCTNTEGGYTCMCAGRLSEPGLICPDSTPPPHLREDDHHYSVRNSDSECPLSHDGYCLHDGVCMYIEALDKYACNCVVGYIGERCQYRDLKWWELRHAGHGQQQKVIVVAVCVVVLVMLLLLSLWGAHYYRTQKLLSKNPKNPYEESSRDVRSRRPADTEDGMSSCPQPWFVVIKEHQDLKNGGQPVAGEDGQAADGSMQPTSWRQEPQLCGMGTEQGCWIPVSSDKGSCPQVMERSFHMPSYGTQTLEGGVEKPHSLLSANPLWQQRALDPPHQMELTQ",MDA-MB-231 cell migration,slightly enhanced

# — patent US11911397B2, “Anordrin compositions and methods for treating diseases” (Zhejiang Jiachi Development Pharmaceuticals LTD, priority 2014, dated 2024)
